# Test results: patent publication US20050222039A1, “Animal treatment” (priority 2001, published 2005)
# Key:
# [1] = test system: Romney ewes; test: Trial 2: bromocriptine treatment of winter-lambing Romney ewes (plasma prolactin, wool growth, lambs); assay type: in vivo, sheep; conditions: bromocriptine given to pregnant ewes before or after parturition
# Procedure: Natural and experimental changes in plasma prolactin concentration and their effects on wool production in winter-lambing Romney ewes were measured.
# Fourteen non-pregnant and 29 pregnant ewes were maintained indoors from early April 1995 for 12 months under controlled photoperiod and controlled dietary intake. Two groups (n=8) were held under long day photoperiod (16L:8D; LD non-pregnant and LD-lambed) while 2 others were exposed to natural photoperiod (ND non-pregnant, n=6 and ND-lambed, n=7). Two further groups (n=7) of pregnant ewes housed in natural days were treated with bromocriptine, either from 1 week before parturition (ND-BrB) or 1-3 days after parturition (ND-BrA), to suppress prolactin secretion.
# Lambing occurred between 12 and 18 June. Plasma prolactin, mean fibre diameter and wool growth were measured at regular intervals and the results were plotted in FIG. 3.
# [2] = test system: Romney ewes; assay type: in vivo, sheep
# Text: The effects of two methods of administration of exogenous prolactin on wool growth were examined.
# Forty-three mixed age Romney ewes were maintained indoors in individual pens from April until October, and fed to maintain a constant maternal live weight (independent of conceptus and fleece weights). A control group (ND non-pregnant) was not mated (n=8). Thirty-five other ewes (comprising Groups 2-5) were mated in April. Groups 1-4 were maintained in natural photoperiod while Group 5 (LD-lambed, n=10) was subjected to long days (16L:8D) from 1 week after mating for the duration of the trial (ie 18 days).
# An ovine prolactin pituitary extract (0.80 mg/kg/day) was administered by either daily subcutaneous injection to sheep of Group 3 (PRL-INJ, n=10) or by intravenous infusion via a jugular cannula to sheep of Group 4 (PRL-INF, n=2) (from one week after mating for a temporary period of 18 days).
# (§1) The sheep were shorn on entry to the experiment and again at the conclusion of the experiment in late September and a mid-side wool sample was measured for fibre diameter and yield. Wool samples were clipped from a standardised 100×100 mm mid-side patch on the right side of each ewe at monthly intervals to determine changes in seasonal clean wool production and mean fibre diameter. Wool growth and plasma prolactin concentrations were measured at regular intervals and the results were plotted in FIGS. 4 and 5.
# [3] = test system: prolactin receptor long form gene expression; test: Trial 3: skin prolactin receptor long form gene expression by real-time PCR; assay type: in vivo, sheep
# Procedure: Six midside skin biopsies were collected at intervals between April and June for measurement of prolactin receptor long form gene expression by real-time PCR and the results are plotted in FIG. 6. An assay for the short form of the ovine prolactin receptor was also developed, but results are not presented since only very low levels of expression were detected.
# (§2) The relative expression of prolactin receptor mRNA was measured using Taqman real-time PCR (Applied Biosystems). RNA was extracted from skin samples using TRIzol reagent according to manufactures protocol (Invitrogen). Total RNA was then quantified using RiboGreen reagent (Invitrogen) and all samples were standardized to a concentration of 0.5 μg/μl of total RNA. The reverse transcriptase reaction (Superscript II RT-PCR kit, Invitrogen) was used to generate single stranded cDNA from 0.5 μg of total RNA.
# (§3) The primers and probes for the long form of the prolactin receptor were designed using the Primer Express program (Applied Biosystems).
# (§4) The 18S ribosomal RNA pre-developed assay reagent (Applied Biosystems) was used as an internal control and the reactions were set up according to the manufacturers instructions. Data was analysed using the software provided by Applied Biosystems. Results on relative mRNA quantities were obtained by the standard curve method.
# [4] = test system: Romney ewes; test: Trial 4: 3-, 9- or 18-day prolactin infusion, wool growth in pregnant Romney ewes; assay type: in vivo, sheep; conditions: for mean total patch weight (clean wool): 12-month trial
# Procedure: Trial 4 was conducted to compare different periods of exogenous prolactin administration on wool growth.
# Eighteen 3 year old Romney ewes were maintained indoors in individual pens under natural photoperiod for 12 months from March 2000. […] The ewes were fed to maintain a constant maternal live weight (independent of conceptus and fleece weights). A control group (ND non-pregnant) was not mated (n=6). Twelve other ewes (comprising Groups 2-4) were mated on 23 April.
# An ovine prolactin pituitary extract (1.0 mg/kg/day) was administered by intravenous infusion via a jugular cannula commencing 11 days after mating (4 May) for temporary periods of either 3 days (Group 2, n=6), 9 days (Group 3, n=3) or 18 days (Group 4, n=3).
# as §1, with “March 2001” for “late September”, “concentration” for “concentrations”, “7” for “4”, “8.” for “5.”
# [5] = test system: prolactin receptor long form gene expression; test: Trial 4: skin prolactin receptor long form gene expression by real-time PCR; assay type: in vivo, sheep
# Procedure: as §2, §3, §4
# Six midside skin biopsies were collected at intervals between April and June for measurement of prolactin receptor long form gene expression by real-time PCR and the results are plotted in FIG. 9.
# [6] = Trial 5: plasma prolactin after two 9-day prolactin infusions in non-pregnant Romney ewes; assay type: in vivo, sheep; conditions: intravenous 1.0 mg/kg/day for 9 days
# Procedure: (§5) Twenty-one, mixed age, non-pregnant Romney ewes were maintained indoors in individual pens from September 2001 until February 2002. The ewes were fed to maintain a constant live weight. They were divided into 3 groups: short day controls (n=7), short day prolactin infused (n=7) and normal day controls (n=7). An ovine prolactin pituitary extract (1.0 mg/kg/day) was administered to each ewe in the short day infused group by intravenous infusion via a jugular cannula commencing on 9 October for 9 days. A second 9-day prolactin infusion was administered to the same ewes commencing on 20 November, 33 days after the end of the first infusion.
# Plasma prolactin concentrations were measured at regular intervals and ten midside skin biopsies were collected at intervals between October and December 2001 for measurement of prolactin receptor long form gene expression by real-time PCR. The results are plotted in FIG. 10.
# [7] = test system: prolactin receptor long form gene expression; test: Trial 5: skin prolactin receptor long form gene expression by real-time PCR; assay type: in vivo, sheep
# Procedure: as §2, §5
# Plasma prolactin concentrations were measured at regular intervals and ten midside skin biopsies were collected at intervals between October and December 2001 for measurement of prolactin receptor long form gene expression by real-time PCR. […]
# [8] = Trial 6: plasma prolactin after 9-day prolactin infusion in pregnant Romney or Wiltshire ewes; assay type: in vivo, sheep; conditions: infusion 40 mg/day for 9 days, pregnant ewes in short days
# Procedure: (§6) Four groups, each comprised of seven 1-2 year old Romney or Wiltshire ewes were shorn and maintained indoors in individual pens from March until November 2002. The animals were fed to maintain a constant maternal live weight (independent of conceptus and fleece weights). The ewes were mated in March, and maintained in short days (8L:16D). Half of the ewes were cannulated and infusions of prolactin (40 mg/day) for 9 days commenced one week after mating. Blood samples and skin biopsies were collected from all ewes at intervals to monitor plasma prolactin and skin prolactin receptor gene expression respectively. The results are plotted in FIG. 11.
# [9] = test system: prolactin receptor gene expression; test: Trial 6: skin prolactin receptor gene expression in Romney or Wiltshire ewes; assay type: in vivo, sheep; conditions: Wiltshire ewes treated in April, P<0.05
# Procedure: as §6
# [10] = test system: prolactin receptor gene expression; test: Trial 8: prolactin receptor gene expression in mice mammary gland; assay type: in vivo; conditions: 3-day infused group, days 7 and 14, P<0.05
# Procedure: Swiss female mice were maintained in cages at a constant temperature of 22 C., under a photoperiod regime of 14 hours light: 10 hours dark, fed a diet of formulated mouse pellets ad libitum with access to fresh tap water. At 21 days of age, subcutaneous implants releasing 250 μg/day of bromocriptine over 60 days (Cat. Number SC-231; Innovative Research of America Inc.) were inserted under anaesthetic. At the same time, the mice received a slow release 100 μl osmotic pump (Alzet Model 1007D; Alza Corporation, Palo Alto, Calif.) delivering ovine prolactin (400 μg/day) for either 3 or 7 days. Mice were sacrificed in groups of 3 at intervals before, during and after prolactin administration. They were anaesthetised using CO2 and blood sampled by heart puncture, prior to euthanasia by cervical dislocation. The blood was centrifuged and the plasma stored at −20 C. by radioimmunoassay for ovine prolactin. The mammary glands were dissected from each mouse and snap frozen in liquid nitrogen prior to assay by real-time PCR for prolactin receptor gene expression. The results are plotted in FIG. 13.
# [11] = test system: prolactin receptor; conditions: cited from earlier work
# [12] = test system: rabbits; conditions: bromocriptine-treated rabbits, single injection of 3 mg of prolactin; cited from earlier work
# [13] = test system: sheep; conditions: sheep held in darkness, infusion of prolactin; cited from earlier work
# [14] = test system: cows; conditions: infusions of exogenous bovine prolactin; cited from earlier work
# [15] = model parameter from literature
molecule,measurement,setting,value
CC(C)C[C@H]1C(=O)N2CCC[C@H]2[C@]2(O)O[C@](NC(=O)[C@@H]3C=C4c5cccc6[nH]c(Br)c(c56)C[C@H]4N(C)C3)(C(C)C)C(=O)N12 [bromocriptine],birth weight or live weight changes of lambs,[1],did not affect
"prolactin: ovine prolactin pituitary extract; peptide hormone of approximately 200 amino acids, given by infusion, injection or osmotic pump (protein, UniProt P01240 31-229, looked up, pituitary extract) Prolactin: TPVCPNGPGNCQVSLRDLFDRAVMVSHYIHNLSSEMFNEFDKRYAQGKGFITMALNSCHTSSLPTPEDKEQAQQTHHEVLMSLILGLLRSWNDPLYHLVTEVRGMKGVPDAILSRAIEIEEENKRLLEGMEMIFGQVIPGAKETEPYPVWSGLPSLQTKDEDARHSAFYNLLHCLRRDSSKIDTYLKLLNCRIIYNNNC",mean clean fleece weight,"[2]; PRL-INF, 6-month trial, ND-lambed controls 1.23 kg, SEM ±0.13 kg, P<0.01",1.63 kg
same,increase in mean fibre diameter,"[2]; PRL-INF, by September, P=0.05",2 μm
same,decline in clean wool growth rate,"[2]; PRL-INF, intravenous infusion 18 days, n=2, May and throughout pregnancy",arrested in May and remained high
same,September clean wool growth rate relative to untreated ND-lambed ewes,"[2]; PRL-INF, intravenous infusion, P<0.001",approximately twice
same,mean fibre diameter relative to ND-lambed controls,"[2]; PRL-INJ, P<0.10",appeared to be lower
same,September clean wool growth vs untreated ND-lambed ewes,"[2]; PRL-INJ, daily subcutaneous injection, P<0.05",lower
same,decline in clean wool growth rate compared to pregnant controls,[2]; daily subcutaneous injections 0.8 mg/kg/day (PRL-INJ),no initial effect
same,"prolactin receptor gene expression, differences between remaining treatment groups","[3]; PRL-INJ (injected) among remaining groups, over the trial",no significant differences
same,duration of high level of receptor expression vs untreated ewes,"[3]; infused ewes, April to June, P<0.05",sustained for two months
same,prolactin receptor gene expression compared to other treatment groups,"[3]; infused ewes, during and after the 18 day infusion, P<0.01",significantly elevated
same,mean total patch weight (clean wool),[4]; 3-day infusion,0.74 g
same,clean patch wool growth vs 3-day and 18-day infused groups,"[4]; 9-day infusion 1.0 mg/kg/day, during May",higher wool growth
same,mean total patch weight (clean wool),[4]; 9-day infusion,0.91 g
same,mean fibre diameter difference vs other infused groups,"[4]; 9-day infusion, July",approximately 3 μm
same,wool growth rate vs other infused groups,"[4]; 9-day infusion, July, P<0.01, persisted until November",higher than either of the other infused groups
same,mean fibre diameter vs 3-day infused group,"[4]; 9-day infusion, June, P<0.01",significantly higher
same,mean total patch weight (clean wool),[4]; 18-day infusion,0.66 g
same,prolactin receptor gene expression following commencement of infusions,[5]; 3-day infusion group,all groups except the 3-day group
same,prolactin receptor gene expression following commencement of infusions,[5]; 9-day and 18-day infusion groups,dropped significantly
same,prolactin receptor gene expression following termination of infusions,"[5]; all infused groups, not statistically significant",rose
same,plasma prolactin levels on termination of the infusions,[6],fell rapidly to baselines levels
same,plasma prolactin levels during infusion,[6]; short day ewes,approximately 500 ng/ml
same,prolactin receptor gene expression,"[7]; first 9-day infusion, P<0.01",elevated
same,prolactin receptor gene expression,"[7]; second 9-day infusion, P<0.02",elevated
same,plasma prolactin levels during prolactin administration,[8],approximately 500 ng/ml
same,prolactin receptor gene expression in September vs non-treated Wiltshire ewes,[9],increase
same,prolactin receptor gene expression vs control group and 7-day infused group,[10],elevated
same,"α, rate of formation of dimer complex","[11]; model parameter from literature [Gertler et al., 1996]",48000 M⁻¹ s⁻¹
same,"d12, dissociation rate of hormone-receptor complex",[11]; [15],4717.4 day⁻¹
same,"d, dissociation rate of hormone-receptor complex",[11]; [15],12.96 day⁻¹
same,"α1, rate of formation of trimer complex",[11]; [15],35000 M⁻¹ s⁻¹
same,"γ, clearance rate constant of plasma prolactin",[11]; [15],35.6 day⁻¹
same,recovery in milk yield,[12],accelerated
same,nitrogen retention,[13],increases
"bovine prolactin: exogenous bovine prolactin infused in cows (literature) (protein, UniProt P01239 31-229, looked up) Prolactin: TPVCPNGPGNCQVSLRDLFDRAVMVSHYIHDLSSEMFNEFDKRYAQGKGFITMALNSCHTSSLPTPEDKEQAQQTHHEVLMSLILGLLRSWNDPLYHLVTEVRGMKGAPDAILSRAIEIEEENKRLLEGMEMIFGQVIPGAKETEPYPVWSGLPSLQTKDEDARYSAFYNLLHCLRRDSSKIDTYLKLLNCRIIYNNNC",bromocriptine-induced reductions in milk yield,[14],can prevent
